We go through five molecules from patent US20220275083A1 (EUTILEX, published 2022).

As usually defined, the Kd is the concentration at which binding is half-saturated. As a reminder, the koff is a measure of how fast the partners let go of each other. A lower koff goes with a long-lived complex. By kon is commonly meant the rate constant with which the complex forms. Read a high kon as faster complex formation. As a reminder, the EC50 (read off the curve) is the concentration at which the effect is half-maximal. Read a high EC50 (read off the curve) as weaker potency.

Assay [1] has as its target T1, PD-L1 antigen (SinoBiologics, Cat. No. 10084-H08H) (human, UniProt Q9NZQ7 19-238).
T1 construct: Bought antigen; also called human PD-L1
The assay can be described thus: SPR, Biacore T200; comparison of S03 with human PD-1-Fc.

Assay [2] addresses T1, PD-L1 antigen (SinoBiologics, Cat. No. …). The assay can be described thus: SPR, Biacore T200; variant captured on CM5, PD-L1 antigen injected. The procedure: (§1) Affinity to 4-1BB was determined using the bispecific epitope binding protein variants diluted to 5 μg/ml and then fixed to CM5 chip (Cytiva, BR-1005-30) with human capture (Cytiva, Cat. No. BR-1008-39). The 4-1BB antigen (abclon) was injected at concentrations of 100, 50, 25, 12.5, 6.25, and 3.125 nM, the association time was set to 150 seconds, and the dissociation time was set to 240 seconds. Biacore T200 (cytiva) was used as the analysis equipment.
(§2) Affinity to PD-L1 was determined using the bispecific epitope binding protein variants diluted to 10 μg/ml and then fixed to CM5 chip with human capture.
(In SPR one partner is held on a chip, and binding of the other changes the refractive index at the surface.)

In another assay the target is T2, 4-1BB antigen (abclon) (UniProt Q07011 24-186).
T2 construct: Bought antigen
In words: SPR, Biacore T200; variant captured on CM5, 4-1BB antigen injected. The procedure:
as §1

Assay [3] has as its target T1, PD-L1 antigen (SinoBiologics, Cat. No. …). In words: SPR, Biacore T200; S03 captured on CM5, PD-L1 antigen injected (same values as Table 2); Table 3, comparison with natural PD1-Fc.
Assay [4] addresses T3, biotinylated PD-L2 (SinoBiologics, Cat. No. 10292-H08H-B) (UniProt Q9BQ51 20-219, biotinylated).
T3 construct: Bought antigen
T3 sequence (looked up): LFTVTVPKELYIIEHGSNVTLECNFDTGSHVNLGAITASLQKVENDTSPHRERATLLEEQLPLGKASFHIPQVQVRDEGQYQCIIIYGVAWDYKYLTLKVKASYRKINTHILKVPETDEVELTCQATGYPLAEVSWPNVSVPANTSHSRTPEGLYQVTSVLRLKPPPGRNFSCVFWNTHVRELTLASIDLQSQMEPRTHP
In words: ELISA, S03 coated in 4-fold dilutions up to 0.1 ug/ml, biotinylated PD-L2 0.1 ug/ml, avidin-HRP.

Assay [5] has as its target T4, biotinylated C1q (comp Tech, Cat. No. A099) protein (UniProt P02745 23-245; P02746 28-253; P02747 29-245, biotinylated (chain not stated)).
T4 construct: Bought C1q, biotinylated with a kit
In words: C1q ELISA, S03 coated at 75 nM, biotinylated C1q titrated in 2-fold steps from 2 ug/ml, avidin-HRP.

The target of assay [6] is T1, PD-L1 antigen (SinoBiologics, Cat. No. …). In words: dual antigen ELISA: PD-L1 coated, S03 titrated, detected with biotinylated 4-1BB and avidin-HRP (signal needs both antigens). Background: An ELISA detects its analyte on a solid surface through an enzyme-linked reagent.
The target is the same in assay [7]. The assay can be described thus: SPR, Biacore T200; S03 captured on CM5, PD-L1 antigen injected (same values as Table 2). The procedure:
as §1, §2

Assay [8] has the same target. The assay can be described thus: ELISA, PD-L1 antigen coated, anti-human IgG Fc-HRP detection, 11 points.

T2 sequence (Q07011 24-186): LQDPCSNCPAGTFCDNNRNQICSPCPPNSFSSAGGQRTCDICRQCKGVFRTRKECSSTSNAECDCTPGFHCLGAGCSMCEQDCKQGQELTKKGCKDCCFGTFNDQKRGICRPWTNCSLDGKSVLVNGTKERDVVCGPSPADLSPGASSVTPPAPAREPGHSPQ
T1 sequence (Q9NZQ7 19-238 limits assumed): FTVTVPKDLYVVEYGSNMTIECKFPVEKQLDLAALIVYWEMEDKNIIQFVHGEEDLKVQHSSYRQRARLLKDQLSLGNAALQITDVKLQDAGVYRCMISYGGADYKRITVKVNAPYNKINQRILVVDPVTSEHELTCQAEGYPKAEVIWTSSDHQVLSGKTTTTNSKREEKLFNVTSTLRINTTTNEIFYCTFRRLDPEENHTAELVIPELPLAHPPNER
T4 sequence (P02745 23-245, chain 1 of 3): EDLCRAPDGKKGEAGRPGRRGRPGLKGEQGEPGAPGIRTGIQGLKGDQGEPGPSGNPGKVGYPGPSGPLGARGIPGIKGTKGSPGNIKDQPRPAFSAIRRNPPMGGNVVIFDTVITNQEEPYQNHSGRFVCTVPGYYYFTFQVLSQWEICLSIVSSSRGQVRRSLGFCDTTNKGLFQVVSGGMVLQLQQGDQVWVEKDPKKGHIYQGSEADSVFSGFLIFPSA
T4 sequence (P02746 28-253, chain 2 of 3): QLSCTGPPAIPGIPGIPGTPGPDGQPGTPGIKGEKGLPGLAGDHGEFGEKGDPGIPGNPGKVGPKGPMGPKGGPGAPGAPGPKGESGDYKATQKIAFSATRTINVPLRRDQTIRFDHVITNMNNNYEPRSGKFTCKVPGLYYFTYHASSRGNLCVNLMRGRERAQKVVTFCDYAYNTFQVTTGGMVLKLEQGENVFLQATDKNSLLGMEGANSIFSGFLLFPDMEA
T4 sequence (P02747 29-245, chain 3 of 3): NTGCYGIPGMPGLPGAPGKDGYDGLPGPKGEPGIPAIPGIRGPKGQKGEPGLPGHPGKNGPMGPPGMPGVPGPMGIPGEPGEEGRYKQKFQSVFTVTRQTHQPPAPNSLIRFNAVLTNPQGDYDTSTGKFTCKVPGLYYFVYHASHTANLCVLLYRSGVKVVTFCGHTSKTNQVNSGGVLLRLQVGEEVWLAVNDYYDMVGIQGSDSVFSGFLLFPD

B1: bispecific epitope binding protein S03 (bispecific antibody)
chain: DIVMTQSPAFLSVTPGEKVTITCRASQTISDYLHWYQQKPDQAPKLLIKYASQSISGIPSRFSGSGSGTDFTFTISSLEAEDAATYYCQDGHSWPPTFGQGTKLEIKGSTSGSGKPGSGEGSTKGQVQLVQSGAEVKKPGASVKLSCKASGYTFSSYWMHWVRQAPGQGLEWIGEINPGNGHTNYNEKFKSRVTMTRDTSTSTAYMELSSLRSEDTAVYYCARSFKTARAFAYWGQGTLVTVSSASGGGGSGGGGSDKTHTCPPCPAPEAAGGPSVFLFPPKPKDTLMISRTPEVTCVVVDVSHEDPEVKFNWYVDGVEVHNAKTKPREEQYNSTYRVVSVLTVLHQDWLNGKEYKCAVSNKALPAPIEKTISKAKGQPREPQVYTLPPSREEMTKNQVSLTCLVKGFYPSDIAVEWESNGQPENNYKTTPPVLDSDGSFFLYSKLTVDKSRWQQGNVFSCSVMHEALHNHYTQKSLSLSPGGGGGSGGGGSFLESPDRPWNAPTFSPALLLVAEGDNATFTCSFSNASESFHVVWHRESPSGQTDTLAAFPEDRSQPGQDHRFRVTRLPNGRDFHMSVVRAQRNDSGTYVCGVISLAPKIQIKESLRAELRVTERRAEVPTAHPSPSPRPAGQFQTLVVG
notes: Anti-4-1BB 94kvt scFv x euPD-1 with hinge and engineered IgG1 Fc (L234A, L235A, K322A, D356E, L358M)
For the molecule B1, the “fold stronger binding than natural PD-1 (human PD-1-Fc)” value in [1] was around 93 fold. The Kd in assay [2] stood at 5.07 nM; with 4-1BB antigen (abclon), 3.05 nM; in [7] it was 5.07 nM. Besides, the off-rate constant (koff) in assay [2] turned out to be 0.00115 s⁻¹; in the assay with 4-1BB antigen (abclon), 0.000634 s⁻¹; in [7], 0.00115 s⁻¹. Moreover, the on-rate constant (kon) in assay [2] was 227000 M⁻¹ s⁻¹; with 4-1BB antigen (abclon), 208000 M⁻¹ s⁻¹; in assay [3], 227000 M⁻¹ s⁻¹. Also, the binding result in assay [4] is “no binding (tested: log10 2.0 ng/mL (100 ng/mL coated))”; in assay [5], “no binding (tested: 2 ug/ml C1q)”. Moreover, the “EC50 (read off the curve)” value in assay [6] is around 0.05 µg/mL.

B2: S13 (PD-L1 null variant of S03) (bispecific antibody)
chain: DIVMTQSPAFLSVTPGEKVTITCRASQTISDYLHWYQQKPDQAPKLLIKYASQSISGIPSRFSGSGSGTDFTFTISSLEAEDAATYYCQDGHSWPPTFGQGTKLEIKGSTSGSGKPGSGEGSTKGQVQLVQSGAEVKKPGASVKLSCKASGYTFSSYWMHWVRQAPGQGLEWIGEINPGNGHTNYNEKFKSRVTMTRDTSTSTAYMELSSLRSEDTAVYYCARSFKTARAFAYWGQGTLVTVSSASGGGGSGGGGSDKTHTCPPCPAPEAAGGPSVFLFPPKPKDTLMISRTPEVTCVVVDVSHEDPEVKFNWYVDGVEVHNAKTKPREEQYNSTYRVVSVLTVLHQDWLNGKEYKCAVSNKALPAPIEKTISKAKGQPREPQVYTLPPSREEMTKNQVSLTCLVKGFYPSDIAVEWESNGQPENNYKTTPPVLDSDGSFFLYSKLTVDKSRWQQGNVFSCSVMHEALHNHYTQKSLSLSPGGGGGSGGGGSFLESPDRPWNAPTFSPALLLVAEGDNATFTCSFSNASESFHVVWHRESPSGQTDALAAFPEDRSQPGQDHRFRVTRLPNGRDFHMSVVRAQRNDSGTYVCGVASLAPKIQAKESLRAELRVTERRAEVPTAHPSPSPRPAGQFQTLVVG
In the case of B2, the binding result in [8] was “no binding (tested: log 1.7 ug/mL as drawn (about 50 ug/mL))”.

B3: bispecific epitope binding protein S02 (bispecific antibody)
chain: QVQLVQSGAEVKKPGASVKLSCKASGYTFSSYWMHWVRQAPGQGLEWIGEINPGNGHTNYNEKFKSRVTMTRDTSTSTAYMELSSLRSEDTAVYYCARSFKTARAFAYWGQGTLVTVSSGSTSGSGKPGSGEGSTKGDIVMTQSPAFLSVTPGEKVTITCRASQTISDYLHWYQQKPDQAPKLLIKYASQSISGIPSRFSGSGSGTDFTFTISSLEAEDAATYYCQDGHSWPPTFGQGTKLEIKASGGGGSGGGGSDKTHTCPPCPAPEAAGGPSVFLFPPKPKDTLMISRTPEVTCVVVDVSHEDPEVKFNWYVDGVEVHNAKTKPREEQYNSTYRVVSVLTVLHQDWLNGKEYKCAVSNKALPAPIEKTISKAKGQPREPQVYTLPPSREEMTKNQVSLTCLVKGFYPSDIAVEWESNGQPENNYKTTPPVLDSDGSFFLYSKLTVDKSRWQQGNVFSCSVMHEALHNHYTQKSLSLSPGGGGGSGGGGSFLESPDRPWNAPTFSPALLLVAEGDNATFTCSFSNASESFHVVWHRESPSGQTDTLAAFPEDRSQPGQDHRFRVTRLPNGRDFHMSVVRAQRNDSGTYVCGVISLAPKIQIKESLRAELRVTERRAEVPTAHPSPSPRPAGQFQTLVVGGGGGSGGGGSGGGGSFLESPDRPWNAPTFSPALLLVAEGDNATFTCSFSNASESFHVVWHRESPSGQTDTLAAFPEDRSQPGQDHRFRVTRLPNGRDFHMSVVRAQRNDSGTYVCGVISLAPKIQIKESLRAELRVTERRAEVPTAHPSPSPRPAGQFQTLVVG
notes: Anti-4-1BB 94kvt scFv x euPD-1 with hinge and engineered IgG1 Fc
In [2], B3 yielded a dissociation constant Kd of 4.06 nM, a koff of 0.00132 s⁻¹ and a kon of 324000 M⁻¹ s⁻¹. In the assay with 4-1BB antigen (abclon), the Kd was found to be 3.67 nM, the koff worked out at 0.000658 s⁻¹ and the kon was 179000 M⁻¹ s⁻¹.

B4: bispecific epitope binding protein S09 (bispecific antibody)
heavy: QVQLVQSGAEVKKPGASVKLSCKASGYTFSSYWMHWVRQAPGQGLEWIGEINPGNGHTNYNEKFKSRVTMTRDTSTSTAYMELSSLRSEDTAVYYCARSFKTARAFAYWGQGTLVTVSSASTKGPSVFPLAPSSKSTSGGTAALGCLVKDYFPEPVTVSWNSGALTSGVHTFPAVLQSSGLYSLSSVVTVPSSSLGTQTYICNVNHKPSNTKVDKKVEPKSCDKTHTCPPCPAPEAAGGPSVFLFPPKPKDTLMISRTPEVTCVVVDVSHEDPEVKFNWYVDGVEVHNAKTKPREEQYNSTYRVVSVLTVLHQDWLNGKEYKCAVSNKALPAPIEKTISKAKGQPREPQVYTLPPSREEMTKNQVSLTCLVKGFYPSDIAVEWESNGQPENNYKTTPPVLDSDGSFFLYSKLTVDKSRWQQGNVFSCSVMHEALHNHYTQKSLSLSPGGGGGSGGGGSFLESPDRPWNAPTFSPALLLVAEGDNATFTCSFSNASESFHVVWHRESPSGQTDTLAAFPEDRSQPGQDHRFRVTRLPNGRDFHMSVVRAQRNDSGTYVCGVISLAPKIQIKESLRAELRVTERRAEVPTAHPSPSPRPAGQFQTLVVG
light: DIVMTQSPAFLSVTPGEKVTITCRASQTISDYLHWYQQKPDQAPKLLIKYASQSISGIPSRFSGSGSGTDFTFTISSLEAEDAATYYCQDGHSWPPTFGQGTKLEIKRTVAAPSVFIFPPSDEQLKSGTASVVCLLNNFYPREAKVQWKVDNALQSGNSQESVTEQDSKDSTYSLSSTLTLSKADYEKHKVYACEVTHQGLSSPVTKSFNRGEC
notes: engineered IgG1 Fc; carries euPD-1
In assay [2], B4 showed a Kd of 6.26 nM, a dissociation rate constant (koff) of 0.00131 s⁻¹ and a kon of 209000 M⁻¹ s⁻¹. In the assay with 4-1BB antigen (abclon), this molecule gave a dissociation constant (Kd) of 2.17 nM, a koff of 0.000568 s⁻¹ and a kon of 261000 M⁻¹ s⁻¹.

B5: bispecific epitope binding protein S10 (bispecific antibody)
heavy: QVQLVQSGAEVKKPGASVKLSCKASGYTFSSYWMHWVRQAPGQGLEWIGEINPGNGHTNYNEKFKSRVTMTRDTSTSTAYMELSSLRSEDTAVYYCARSFKTARAFAYWGQGTLVTVSSASTKGPSVFPLAPSSKSTSGGTAALGCLVKDYFPEPVTVSWNSGALTSGVHTFPAVLQSSGLYSLSSVVTVPSSSLGTQTYICNVNHKPSNTKVDKKVEPKSCDKTHTCPPCPAPEAAGGPSVFLFPPKPKDTLMISRTPEVTCVVVDVSHEDPEVKFNWYVDGVEVHNAKTKPREEQYNSTYRVVSVLTVLHQDWLNGKEYKCAVSNKALPAPIEKTISKAKGQPREPQVYTLPPSREEMTKNQVSLTCLVKGFYPSDIAVEWESNGQPENNYKTTPPVLDSDGSFFLYSKLTVDKSRWQQGNVFSCSVMHEALHNHYTQKSLSLSPGGSTSGSGKPGSGEGSTKGSFLESPDRPWNAPTFSPALLLVAEGDNATFTCSFSNASESFHVVWHRESPSGQTDTLAAFPEDRSQPGQDHRFRVTRLPNGRDFHMSVVRAQRNDSGTYVCGVISLAPKIQIKESLRAELRVTERRAEVPTAHPSPSPRPAGQFQTLVVG
light: DIVMTQSPAFLSVTPGEKVTITCRASQTISDYLHWYQQKPDQAPKLLIKYASQSISGIPSRFSGSGSGTDFTFTISSLEAEDAATYYCQDGHSWPPTFGQGTKLEIKRTVAAPSVFIFPPSDEQLKSGTASVVCLLNNFYPREAKVQWKVDNALQSGNSQESVTEQDSKDSTYSLSSTLTLSKADYEKHKVYACEVTHQGLSSPVTKSFNRGEC
notes: as for B4
As to B5, in assay [2], the Kd is 3.73 nM, the koff is 0.00141 s⁻¹ and the association rate constant (kon) worked out at 377000 M⁻¹ s⁻¹. In the assay with 4-1BB antigen (abclon), binding was characterised by a dissociation constant (Kd) of 2.3 nM, the koff turned out to be 0.000601 s⁻¹ and the kon is 262000 M⁻¹ s⁻¹.
